Experimental data taken from patent publication US20240228612A1 (SICHUAN KELUN BIOTECH BIOPHARMACEUTICAL, published 2024).
Numbering of substitutions follows the chain as printed.

T1: human Nectin-4 protein (human, UniProt Q96NY8 32-349)
T1 construct: Purified protein used for coating in ELISA and as analyte in Octet; also called human Nectin-4 antigen
T1 sequence (looked up): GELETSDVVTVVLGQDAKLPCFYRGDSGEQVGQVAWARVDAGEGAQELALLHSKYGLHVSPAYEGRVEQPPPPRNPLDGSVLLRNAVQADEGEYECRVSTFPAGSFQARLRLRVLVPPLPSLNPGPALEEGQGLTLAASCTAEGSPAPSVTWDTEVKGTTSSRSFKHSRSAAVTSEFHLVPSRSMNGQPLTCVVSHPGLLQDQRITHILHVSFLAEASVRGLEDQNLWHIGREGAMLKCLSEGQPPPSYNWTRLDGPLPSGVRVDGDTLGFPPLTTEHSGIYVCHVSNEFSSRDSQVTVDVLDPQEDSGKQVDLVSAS

T2: human Nectin-2 antigen (human, UniProt Q92692 32-360, limits assumed)
T2 sequence (looked up): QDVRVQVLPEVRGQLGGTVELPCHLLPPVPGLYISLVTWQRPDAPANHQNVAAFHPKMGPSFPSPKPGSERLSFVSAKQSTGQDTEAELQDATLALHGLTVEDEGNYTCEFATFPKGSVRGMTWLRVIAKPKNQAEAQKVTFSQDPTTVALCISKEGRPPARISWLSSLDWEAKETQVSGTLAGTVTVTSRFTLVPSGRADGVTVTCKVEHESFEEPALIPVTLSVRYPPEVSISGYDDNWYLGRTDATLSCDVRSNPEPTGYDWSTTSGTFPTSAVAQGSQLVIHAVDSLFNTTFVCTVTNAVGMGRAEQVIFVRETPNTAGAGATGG

B1: anti-human Nectin-4 humanized monoclonal antibody 56HZ (antibody, human IgG1, kappa, V domains shown)
VH: QVQLQESGPGLVKPSQTLSLTCTVSGYFNSITSDYDWHWIRHHPGKGLEWMGYISFSGRTYYNPSLKSRVTISHDTSKNQFSLKLSSVTAADTAVYYCARGNYDGFDYWGQGTLVTVSS
VL: DIVLTQSPATLSLSPGERATLSCRASQNIGTSIHWYQHKPGQSPRLLIKFASESISGIPARFSGSGSGTDFTLTISSLEPEDFAVYYCQQSKSWPTYTFGGGTKVEIKR
notes: Human IgG1 heavy chain constant region, human kappa light chain constant region; expressed in CHO-E cells
B2: anti-human Nectin-4 humanized monoclonal antibody 74HZ (antibody, human IgG1, kappa, V domains shown)
VH: QVQLVQSGAEVKKPGSSVKVSCKASGYTFINYWMNWVRQAPGQGLEWIGMIHPSDSATRLNQSFQGRVTLTVDKSTSTAYMELSSLRSEDTAVYYCARWGNFYTVNAWYYFDYWGQGTLVTVSS
VL: DIVITQSPDSLAVSLGERATINCKSSQTLLNSNTQKNYLAWYQQKPGQSPKLLFYFASTRESGVPDRFSGSGSGTDFTLTISSLQAEDVAVYFCQQHYSTPLTFGQGTKLEIKR
notes: as for B1
B3: anti-human Nectin-4 humanized monoclonal antibody 31HZ (antibody, human IgG1, kappa, V domains shown)
VH: QVQLVQSGAEVKKPGSSVKVSCKASGYTFTDYWMNWVRLAPGQGLEWIGMIHPSDSETRLNQKFQGRVTLTVDKSTSTAYMELSSLRSEDTAVYYCARWDFRIYYAMDYWGQGTLVTVSS
VL: B2 VL with I2V, T28S, S32T, T34S, F54V, Q106G, L110V
notes: as for B1

Key:
human Nectin-4 protein [1] = biological target: T1, human Nectin-4 protein; experiment: ELISA, coated antigen
Description: (§1) The affinity of anti-human Nectin-4 humanized monoclonal antibodies to Nectin-4 protein of different species was detected by ELISA.

[2] = biological target: T3, cynomolgus monkey Nectin-4 protein (cynomolgus monkey); experiment: ELISA, coated antigen
T3 construct: also called cynomolgus monkey Nectin-4 antigen
Description: as §1

human Nectin-2 antigen = biological target: T2, human Nectin-2 antigen; experiment: ELISA, coated human Nectin-2, anti-human-HRP
Experimental: (§2) The Nectin family includes members of Nectin-1, Nectin-2, Nectin-3 and Nectin-4, and the members share a sequence identity of about 25%, but have similar structure and function. […] The specific steps were as follows: human Nectin-1, Nectin-2, Nectin-3 and Nectin-4 antigens were diluted to 1 μg/mL with CBS coating solution, coated on an ELISA plate at 100 μL per well, and standed overnight at 4° C.; the liquid in the well was discarded on the next day, and washing was performed once with 300 μL of PBS; 100 μL of PBS (containing 2% BSA) was added, and blocking was performed at 37° C. for 2 hours; 31HZ, 56HZ, 74HZ and Enfortumab antibodies were diluted with PBS (containing 2% BSA), 100 μL was taken and added to the corresponding well, incubated at 37° C. for 2 hours; washing was performed 3 times with 300 μL of PBST; HRP-labeled goat anti-human secondary antibody was diluted at a ratio of 1:10000 with PBS (containing 2% BSA), 100 μL was taken and added to the corresponding well, incubation was performed at 37° C. for 1 hour; washing was performed 5 times with 300 μL of PBST; 100 μL of TMB color development solution was added to the corresponding well, and color development was performed at room temperature for 5-20 minutes; 50 μL of 2N H₂SO₄ was added for stopping, a microplate reader was used for collecting readings at OD450 nm, and the data were imported into Graphpad Prism for curve fitting.

human Nectin-3 antigen = human Nectin-3 antigen (human, UniProt Q9NQS3 58-404, limits assumed); experiment: ELISA, coated human Nectin-3, anti-human-HRP
Experimental: as §2

human Nectin-4 protein [3] = biological target: T1, human Nectin-4 protein; experiment: competitive ELISA, coated Nectin-4; competitor biotin-labeled Nectin-1-hFc
Experimental: Human Nectin-4 is linked to another Nectin-4 molecule or Nectin-1 molecule through the IgV domain. Because 31HZ, 56HZ and 74HZ all bind to the IgV domain of Nectin-4, the competitive activity of the three antibodies was detected by competitive ELISA. The specific steps were as follows: Nectin-4 protein was diluted to 2 μg/mL with CBS coating solution, 100 μL per well, and incubated at 37° C. for 2 hours; washing was performed once with 300 μL PBST, PBS (2% BSA) was then added, 100 μL per well, and incubation was performed at 37° C. for 2 hours; biotin-labeled Nectin-1-hFc was diluted with PBS (2% BSA) to 20 μg/mL; the antibody to be detected was diluted with PBS (2% BSA), wherein the dilution of 31HZ and 74HZ was started from 3.73 μg/mL, 3-fold dilution, and 9 concentration points, the dilution of 56HZ was started from 1.25 μg/mL, 2-fold dilution, and 10 concentration points; the above two diluted solutions were mixed well in equal volumes, and then added to the corresponding well at 100 μL/well, and incubation was performed at room temperature for 2 hours; washing was performed three times with 300 μL PBST; HRP-streptavidin was diluted with PBS (2% BSA) at a ratio of […], and added to the corresponding well at 100 μL/well, incubation was performed at room temperature for 1 hour; washing was performed five times with 300 μL of PBST; 100 μL of TMB was added to the corresponding well, color development was performed at room temperature for 10 minutes, and then terminated by adding 50 μL of 2N H₂SO₄, and a microplate reader was used for collecting readings at 450 nm.

human Nectin-4 protein [4] = biological target: T1, human Nectin-4 protein; experiment: BLI (Octet Fortebio), antibody on ProA sensor, Nectin-4 as analyte, 1:1 global fit
Experimental: (§3) The dynamic affinity of anti-human Nectin-4 humanized monoclonal antibodies was detected using Octet Fortebio®. The main steps comprised: firstly, the anti-human Nectin-4 humanized monoclonal antibody (concentration of 5 μg/mL) was immobilized on ProA sensor, then subjected to binding reaction with human or cynomolgus monkey Nectin-4 (gradiently diluted to 400 nM, 200 nM, 100 nM, 50 nM, 25 nM, 12.5 nM, 6.25 nM, 0 nM), and the anchored product in the solid phase obtained through fully reaction was subjected to dissociation reaction in PBST buffer. After the completion of the experiment, the results were analyzed by using Data Analysis 11.0 software at 1:1 mode to perform global fitting, thereby obtaining the affinity constant of antibody to antigen.

[5] = biological target: T3, cynomolgus monkey Nectin-4 protein; experiment: as above
Experimental: as §3

Sequence of human Nectin-3 antigen (Q9NQS3 58-404 limits assumed): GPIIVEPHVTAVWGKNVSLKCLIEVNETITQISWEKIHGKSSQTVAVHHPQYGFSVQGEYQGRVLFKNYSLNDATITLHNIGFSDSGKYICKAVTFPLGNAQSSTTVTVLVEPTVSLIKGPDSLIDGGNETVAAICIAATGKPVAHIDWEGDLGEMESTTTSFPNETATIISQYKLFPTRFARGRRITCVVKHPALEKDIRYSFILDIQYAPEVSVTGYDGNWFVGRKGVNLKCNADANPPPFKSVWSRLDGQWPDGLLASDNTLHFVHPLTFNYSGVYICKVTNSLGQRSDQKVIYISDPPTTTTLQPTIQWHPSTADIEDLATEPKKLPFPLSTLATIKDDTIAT

Binder	EC50 (human Nectin-4 protein [1])	EC50 [2]	binding result (human Nectin-2 antigen)	binding result (human Nectin-3 antigen)	IC50 (human Nectin-4 protein [3])	Kd (human Nectin-4 protein [4])	Kd [5]
B1	9.48 ng/mL	9.85 ng/mL	no binding	no binding	26.9 ng/mL	19.6 nM	18.4 nM
B2	8.34 ng/mL	6.73 ng/mL	no binding (tested: 10000 ng/mL)	no binding (tested: 10000 ng/mL)	27.2 ng/mL	12.1 nM	9.54 nM
B3	3.6 ng/mL	4.45 ng/mL	no binding (tested: 10000 ng/mL)	no binding (tested: 10000 ng/mL)	27.6 ng/mL	22.5 nM	14.5 nM
